The source of these data is US6884600B1, “Protein phosphatase-1 catalytic subunit interactions” (Medical Research Council London, priority 1996, dated 2005).

One series concerns the target PP1c (γ1-isoform) (Homo sapiens, UniProt P36873). Put plainly: Far Western: GST-GM fusion proteins probed with digoxygenin-labelled PP1γ. It is filed as binding. Conditions: GST-fusion proteins on blot probed with digoxygenin-labelled PP1γ. The source says: GST-GM fusion proteins were electrophoresed on 10% SDS/polyacrylamide gels and stained with Coomassie blue (lanes 1-3) or, after transfer to nitrocellulose, probed with digoxygenin-labelled PP1γ (lanes 4-6) as in [9]. Lanes 1 and 4, GST-GM-(E2-D118); Lanes 2 and 5, GST-GM-(H100-P350); Lanes 3 and 6, GST. The positions of the marker proteins glycogen phosphorylase (97 kDa), bovine serum albumin (66 kDa), ovalbumin (43 kDa), carbonic anhydrase (29 kDa) and soybean trypsin inhibitor (20 kDa) are indicated.
(§1) The myosin-associated form of PP1 (PP1M) was from chicken gizzard and the glycogen-associated form of PP1 (PP1G) from rabbit skeletal muscle. The β isoform of PP1c was released from PP1G by incubation for 2 hours in 2M LiBr, then purified by gel-filtration on a 30×1 cm column of Superose 12 (Pharmacia, Milton Keynes, U.K.) in the presence of 0.5M LiBr. Glycogen protein particles from rat liver were used as the source of hepatic PP1G Digoxygenin-labelled PP1c (γ1-isoform, hereafter termed PP1) was prepared as in [9]. GL was expressed in E. coli as a glutathione-S-transferase (GST) fusion protein [7], termed GST-GL. The catalytic subunit of PP2A from bovine heart (PP2AC) was provided by Dr R. MacKintosh in this Unit. The phosphorylatable myosin light chain (MLC20) and heavy meromyosin from chicken gizzard were a gift from Dr M. Ikebe (Case Western Reserve University, Cleveland, USA). Thrombin and benzamidine-Agarose were purchased from Sigma (Poole, UK).
The amino acid sequence of rat hepatic GL is 23% identical (39% similar) to residues 1-286 of GM from human skeletal muscle. […] Fusion proteins in which GST was linked to fragments of GM were therefore tested for their ability to bind to PP1c. […] We therefore synthesised GM-(G63-T93) and examined its effect on the enzymatic properties of PP1GL, the form of PP1 associated with rat hepatic protein-glycogen particles.

The target in series [1] is T1, PP1c (Oryctolagus cuniculus, UniProt P62143).
T1 construct: from tissue; host or cells: rabbit skeletal muscle (PP1G dissociated with LiBr)
T1 sequence (P62143 whole entry): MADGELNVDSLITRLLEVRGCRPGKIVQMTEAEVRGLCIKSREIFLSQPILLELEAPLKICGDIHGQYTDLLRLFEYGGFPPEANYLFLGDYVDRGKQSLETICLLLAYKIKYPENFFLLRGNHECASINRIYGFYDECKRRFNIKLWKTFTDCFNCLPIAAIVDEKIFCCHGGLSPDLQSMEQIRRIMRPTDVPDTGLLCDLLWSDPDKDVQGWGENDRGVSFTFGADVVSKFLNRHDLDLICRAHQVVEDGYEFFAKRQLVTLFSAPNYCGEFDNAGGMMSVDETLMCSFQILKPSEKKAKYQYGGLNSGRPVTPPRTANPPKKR
Nature of the series: MLC20 (myosin P-light chain) phosphatase activity of PP1c. It is filed as biochemical. The method, then: (§2) A,B; Effects of M110-(M1-E309) (closed circles), M110-(M1-F38) (open circles) and M110-(D39-E309) (open triangles) on the MLC20 phosphatase […] and phosphorylase phosphatase (B) activities of PP1c were measured after incubating PP1c for 15 minutes at 30° C. with each fragment. The results are presented as a percentage of those obtained in experiments where the M110 fragments were omitted.
(§3) C,D; The effect of M110-(M1-A150) (open circles) and M110-(L24-Y496) (closed circles) on the MLC20 phosphatase (C) and phosphorylase phosphatase (D) activities of PP1c were measured as in A,B.
(A) The MLC20 phosphatase activity of PP1c was assayed after incubation for 15 minutes at 30° C. in the presence or absence of 1 μM GM-(G63-T93) and either 0.1 μM M110-(M1-F38) or 0.1 nM M110-(M1-E309).
(1-38, open circles) or M110[M1-K35] (1-35, closed circles) were incubated with PP1c for 15 min at 30° C. and reactions started with the ^32P-labelled MLC20 substrate. The results are expressed as a % of the activity determined in control incubations where the M110 peptides were omitted (100%). Similar results were obtained in three separate experiments.
as §1
(§4) ^32P-labelled rabbit skeletal muscle phosphorylase a (containing 1.0 mol phosphate per mol subunit) was prepared by phosphorylation with phosphorylase kinase, ^32P-labelled rabbit skeletal muscle glycogen synthase (containing 1.5 mol/mol subunit in the sites 3 region) was prepared by phosphorylation with glycogen synthase kinase-3 [24]). ^32P-labelled chicken gizzard MLC20 and ^32P-labelled chicken gizzard heavy meromyosin (containing 1.0 mol phosphate per mol subunit) were prepared by phosphorylation with smooth muscle myosin light chain kinase. The dephosphorylation of phosphorylase a (10 μM), glycogen synthase (1 μM) and MLC20 (1 μM) and heavy meromyosin (1 μM) was carried out as in [24]. One unit of activity (U) was that amount which released […] of phosphate in one minute.
(§5) PP1c was isolated from the rabbit skeletal muscle PP1-GM complex as described previously (Johnson et al, 1996). Glycogen particles isolated from rat liver (Schelling el al, 1988) served as the source of PP1-GL. The dephosphorylation of glycogen phosphorylase (10 μM) and the isolated MLC20 of smooth muscle myosin (1 μM) by PP1c was carried out as described previously (Cohen et al., 1988; Alessi et al., 1992).
^32P-labelled myosin P-light chains containing 1.0 mol phosphate per mol subunit was prepared by phosphorylation with smooth muscle myosin light chain kinase. The dephosphorylation of myosin P-light chain (1 μM) was carried out as in [4] and one unit of activity (U) was that amount which catalysed the release of 1 μmole of phosphate in one min. When assaying PP1M in immunoprecipitates from the myofibrillar extracts, the tubes were shaken continuously and 3 nM okadaic acid was included to inhibit any PP2A present.

Series [2] deals with T1, PP1c. Nature of the series: Phosphorylase phosphatase activity of PP1c. It is filed as biochemical, rabbit. Here is the method: as §2, §3
(B) The phosphorylase phosphatase activity of PP1c was assayed as in A in the presence or absence of 1 μM GM-(G63-T93) and 1.0 nM M110-(M1-E309). The results are presented (SEM for three experiments) as a percentage of the PP1c activity measured in the absence of GM-(63-T93), M110-(M1-F38) or M110-(M1-E309).
as §1, §4, §5

The next series deals with T2, myosin (Gallus gallus, UniProt P10587).
T2 construct: from tissue; host or cells: chicken gizzard
T2 sequence (P10587 whole entry): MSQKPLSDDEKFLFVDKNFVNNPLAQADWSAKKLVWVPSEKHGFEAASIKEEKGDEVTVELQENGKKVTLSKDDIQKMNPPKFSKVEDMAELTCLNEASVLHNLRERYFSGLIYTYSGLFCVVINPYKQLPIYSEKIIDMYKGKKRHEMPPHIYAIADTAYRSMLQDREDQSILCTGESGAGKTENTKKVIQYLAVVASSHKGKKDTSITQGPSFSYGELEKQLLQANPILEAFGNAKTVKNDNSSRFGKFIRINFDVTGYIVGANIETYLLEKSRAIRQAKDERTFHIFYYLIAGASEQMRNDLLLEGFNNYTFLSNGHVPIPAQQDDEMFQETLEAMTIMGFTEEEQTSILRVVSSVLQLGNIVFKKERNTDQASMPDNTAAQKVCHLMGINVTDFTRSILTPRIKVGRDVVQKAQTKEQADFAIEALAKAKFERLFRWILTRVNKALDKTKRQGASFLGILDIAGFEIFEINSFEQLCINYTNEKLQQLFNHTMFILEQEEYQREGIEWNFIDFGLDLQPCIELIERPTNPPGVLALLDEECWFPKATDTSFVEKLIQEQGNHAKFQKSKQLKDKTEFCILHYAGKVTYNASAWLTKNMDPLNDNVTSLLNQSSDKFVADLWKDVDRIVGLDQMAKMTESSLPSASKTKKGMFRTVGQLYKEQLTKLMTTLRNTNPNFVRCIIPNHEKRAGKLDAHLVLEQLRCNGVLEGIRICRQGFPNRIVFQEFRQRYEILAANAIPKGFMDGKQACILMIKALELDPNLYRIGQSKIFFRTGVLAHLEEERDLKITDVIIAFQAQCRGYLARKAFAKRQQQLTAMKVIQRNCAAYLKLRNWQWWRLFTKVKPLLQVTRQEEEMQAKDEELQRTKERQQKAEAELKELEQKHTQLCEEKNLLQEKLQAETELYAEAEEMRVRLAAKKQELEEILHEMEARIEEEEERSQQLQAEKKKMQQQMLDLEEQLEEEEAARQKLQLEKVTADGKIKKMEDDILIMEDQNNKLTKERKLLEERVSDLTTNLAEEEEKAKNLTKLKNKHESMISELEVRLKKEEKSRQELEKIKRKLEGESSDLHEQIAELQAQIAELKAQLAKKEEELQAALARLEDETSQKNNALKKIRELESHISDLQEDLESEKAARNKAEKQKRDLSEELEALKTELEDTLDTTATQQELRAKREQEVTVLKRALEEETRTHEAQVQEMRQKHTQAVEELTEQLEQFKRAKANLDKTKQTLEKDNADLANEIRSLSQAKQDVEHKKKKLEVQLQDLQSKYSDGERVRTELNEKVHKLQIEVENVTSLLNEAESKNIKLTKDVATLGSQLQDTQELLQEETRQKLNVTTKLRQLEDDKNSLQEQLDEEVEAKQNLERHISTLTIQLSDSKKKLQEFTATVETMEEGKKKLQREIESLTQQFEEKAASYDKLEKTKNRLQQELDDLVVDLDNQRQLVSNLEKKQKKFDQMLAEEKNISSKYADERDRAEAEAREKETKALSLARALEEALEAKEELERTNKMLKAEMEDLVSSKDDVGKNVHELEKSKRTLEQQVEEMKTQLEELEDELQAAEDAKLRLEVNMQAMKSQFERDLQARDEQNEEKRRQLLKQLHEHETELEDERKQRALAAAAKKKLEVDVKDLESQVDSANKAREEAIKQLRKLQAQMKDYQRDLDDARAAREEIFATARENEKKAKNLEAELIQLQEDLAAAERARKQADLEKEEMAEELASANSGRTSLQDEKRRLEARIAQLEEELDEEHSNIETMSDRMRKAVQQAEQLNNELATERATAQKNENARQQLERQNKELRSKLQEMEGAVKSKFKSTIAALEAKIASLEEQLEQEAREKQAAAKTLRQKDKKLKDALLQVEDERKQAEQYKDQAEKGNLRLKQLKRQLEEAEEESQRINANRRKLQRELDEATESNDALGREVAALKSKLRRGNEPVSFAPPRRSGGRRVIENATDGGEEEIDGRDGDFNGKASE
T2 sequence (P02612 whole entry partner): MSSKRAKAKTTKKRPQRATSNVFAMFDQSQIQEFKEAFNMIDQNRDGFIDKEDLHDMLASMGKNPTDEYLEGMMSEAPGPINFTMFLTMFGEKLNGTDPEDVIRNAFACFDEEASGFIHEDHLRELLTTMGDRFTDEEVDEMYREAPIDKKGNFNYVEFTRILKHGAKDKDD
T2 sequence (P02607 whole entry partner): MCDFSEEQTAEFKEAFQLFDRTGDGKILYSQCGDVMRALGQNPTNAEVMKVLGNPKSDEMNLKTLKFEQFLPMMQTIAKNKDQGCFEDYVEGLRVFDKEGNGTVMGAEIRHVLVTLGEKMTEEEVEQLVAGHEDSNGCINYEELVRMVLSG
Put plainly: Myosin binding assay (pelleting with myosin). More on the design: species or system chicken. Conditions: myosin 1 μM, 15 min 0° C. Here is the method: The PP1 catalytic subunit (PP1c), PP1M, or PP1M lacking the M21 subunit, PP1M(ΔM21), each at 30 nM, were incubated for 15 min at 0° C. with 1 μM myosin and centrifuged (see Methods of Example 3). […] The results shown are the average (±S.E.M.) for three separate experiments each assayed in duplicate.
(A); PP1M, M110-(M1-S477) and GST-M110-(M377-K976), each at 30 nM were incubated for 15 min at 0° C. with 1 μM myosin and centrifuged. The supernatants (S), resuspended pellets (P) and the suspension before centrifugation (T, total) were electrophoresed on 12% SDS/polyacrylamide gels, transferred to nitrocellulose and immunoblotted with antibodies raised against the PP1M holoenzyme. No protein was pelleted in the absence of myosin (not shown). The positions of the marker proteins myosin heavy chain (200 kDa), glycogen phosphorylase (97 kDa), bovine serum albumin (66 kDa), ovalbumin (43 kDa), carbonic anhydrase (29 kDa) and soybean trypsin inhibitor (20 kDa) are indicated. (B) The experiments were carried out as in (A), except that the M110 fragments and M21 subunit were used at 100 nM, the 8.5 kDa M110-(K933-I1004) fragment was electrophoresed on a 16.5% polyacrylamide gel and immunoblotting was carried out with affinity purified antibodies (see Methods). A small amount of M110-(R714-I1004) pelleted in the absence of myosin. […] No other protein was pelleted in the absence of myosin.
(A); Myosin (1 μM) was mixed with 50 μM, 20 μM or 10 μM M21 subunit to give the molar ratios M21:myosin dimer indicated. After 15 min at 0° C., the solutions were centrifuged and the supernatants (S), resuspended pellets (P) and the suspension before centrifugation (T, total) were electrophoresed on 12% SDS/polyacrylamide gels and stained with Coomassie blue. The positions of the myosin heavy chain (MHC) and the M21 subunit are indicated. The myosin light chains migrate faster than the M21 subunit and are not visible at these loadings.
Myosin binding assays. Myosin (0.5 mg/ml, 1 μM in terms of myosin heavy chains) in 10 mM Hepes pH 7.5, 50 mM KCl, 5 mM MgCl2, 0.1% (by vol) 2-mercaptoethanol, was mixed with PP1M, M21 subunit, or fragments of the M110 and M21 subunits, at the concentrations indicated in figure legends. After incubation for 15 min at 0° C., the solutions were centrifuged for 2 min at 13,000×g, the supernatants removed, and the pellets washed twice in 10 mM Hepes pH 7.5, 50 mM KCl, 5 mM MgCl2, 0.1% (by vol) 2-mercaptoethanol before resuspension in 50 mM Tris-HCl pH 7.5, 0.1 mM EGTA, 0.03% (by mass) Brij 35, 0.6 M NaCl, 0.1% (by vol) 2-mercaptoethanol. Aliquots of the supernatant, the resuspended pellet and the suspension before centrifugation were either assayed for myosin P-light chain phosphatase activity or denatured in SDS and analysed by SDS/polyacrylamide gel electrophoresis.

PP1c (γ1-isoform), sequence (P36873 whole entry, the tested form may be a part, canonical isoform): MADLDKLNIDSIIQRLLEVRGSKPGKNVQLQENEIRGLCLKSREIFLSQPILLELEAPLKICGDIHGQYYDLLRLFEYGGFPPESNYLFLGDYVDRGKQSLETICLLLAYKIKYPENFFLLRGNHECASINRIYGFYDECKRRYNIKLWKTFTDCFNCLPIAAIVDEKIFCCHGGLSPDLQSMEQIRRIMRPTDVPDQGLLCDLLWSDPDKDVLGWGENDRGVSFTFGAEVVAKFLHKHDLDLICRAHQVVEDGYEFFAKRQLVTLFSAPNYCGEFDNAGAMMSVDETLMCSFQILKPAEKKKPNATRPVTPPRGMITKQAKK

B1: GST-GM-(E2-D118): GST fusion of amino acids 2-118 of human GM (protein)
chain: EPSEVPSQISKDNFLEVPNLSDSLCEDEEVTFQPGFSPQPSRRGSDSSEDIYLDTPSSGTRRVSFADSFGFNLVSVKEFDCWELPSASTTFDLGTDIFHTEEYVLAPLFDLPSSKEDQLNSS
modifications: left off: a dimerising Fc or GST
notes: GST fusion of amino acids 2-118 of human GM
Regarding B1, in the series with PP1c (γ1-isoform), the “interaction with PP1 in Far Western experiments” value (“interaction with PP1” for short) is “interacted with PP1”.

B2: GST-M110-(M1-S477): GST fusion of rat aorta M110 residues 1-477 (protein)
chain: MKMADAKQKRNEQLKRWIGSETDLEPPVVKRQKTKVKFDDGAVFLAACSSGDTDEVLKLLHRGADINYANVDGLTALHQACIDDNVDMVKFLVENGANINQPDNEGWIPLHAAASCGYLDIAEFLIGQGAHVGAVNSEGDTPLDIAEEEAMEELLQNEVNRQGVDIEAARKEEERIMLRDARQWLNSGHISDVRHAKSGGTALHVAAAKGYTEVLKLLIQAGYDVNIKDYDGWTPLHAAAHWGKEEACRILVDNLCDMETVNKVGQTAFDVADEDILGYLEELQKKQNLLHSEKRDKKSPLIESTANMENNQPQKTFKNKETLIIEPEKNASRIESLEQEKADEEEEGKKDESSCSSEEDEEDDSESEAETDKTKPMASVTNAHTASTQAAPAAVTTPTLSSNQGTPTSPVKKFPTSTTKISPKEEERKDESPASWRLGLRKTGSYGALAEITASKEAQKEKDTAGVIRSASSPRLSSAANSISSLIHRD
modifications: left off: a dimerising Fc or GST
With B2, in the series with PP1c [1], the “effect on the MLC20 phosphatase activity of PP1c” value is “stimulated the PP1c-catalysed dephosphorylation of the myosin P-light chain”. In addition, the “effect on the phosphorylase phosphatase activity of PP1c” value in the series with PP1c [2] is “inhibited the dephosphorylation of glycogen phosphorylase”. Also, the binding to myosin result with myosin is on record as “neither GST-M110-(M1-S477) nor GST-M110-(M1-E309) bound to myosin”.

B3: GST-GM-(H100-P350): GST fusion of amino acids 100-350 of human GM (protein)
chain: HTEEYVLAPLFDLPSSKEDLMQQLQIQKAILESTESLLGSTSIKGIIRVLNVSFEKLVYVRMSLDDWQTHYDILAEYVPNSCDGETDQFSFKIVLVPPYQKDGSKVEFCIRYETSVGTFWSNNNGTNYTFICQKKEQEPEPVKPWKEVPNRQIKGCLKVKSSKEESSVTSEENNFENPKNTDTYIPTIICSHEDKEDLEASNRNVKDVNREHDEHNEKELELMINQHLIRTRSTASRDERNTFSTDPVNFP
modifications: left off: a dimerising Fc or GST
notes: GST fusion of amino acids 100-350 of human GM
As to B3, in the series with PP1c (γ1-isoform), the “interaction with PP1” value is given as “not”.

B4: M110-(L24-Y496): rat aorta M110 fragment, residues 24-496 (protein, UniProt Q10728 24-496, looked up, fragment)
chain: LEPPVVKRQKTKVKFDDGAVFLAACSSGDTDEVLKLLHRGADINYANVDGLTALHQACIDDNVDMVKFLVENGANINQPDNEGWIPLHAAASCGYLDIAEFLIGQGAHVGAVNSEGDTPLDIAEEEAMEELLQNEVNRQGVDIEAARKEEERIMLRDARQWLNSGHISDVRHAKSGGTALHVAAAKGYTEVLKLLIQAGYDVNIKDYDGWTPLHAAAHWGKEEACRILVDNLCDMETVNKVGQTAFDVADEDILGYLEELQKKQNLLHSEKRDKKSPLIESTANMENNQPQKTFKNKETLIIEPEKNASRIESLEQEKADEEEEGKKDESSCSSEEDEEDDSESEAETDKTKPMASVTNAHTASTQAAPAAVTTPTLSSNQGTPTSPVKKFPTSTTKISPKEEERKDESPASWRLGLRKTGSYGALAEITASKEAQKEKDTAGVIRSASSPRLSSSLDNKEKEKDNKGTRLAY
For B4, the “effect on the MLC20 phosphatase activity of PP1c” value with PP1c [1] was “less effective than M110-(M1-A150) or M110-(M1-E309) in stimulating the MLC20 phosphatase activity of PP1c”. Further, the “effect on the phosphorylase phosphatase activity of PP1c” value with PP1c [2] is “inhibited the phosphorylase phosphatase activity of PP1c in a similar manner to M110-(M1-A150)”.

B5: GST-GM-(E2-P243): GST fusion of amino acids 2-243 of human GM (protein)
chain: EPSEVPSQISKDNFLEVPNLSDSLCEDEEVTFQPGFSPQPSRRGSDSSEDIYLDTPSSGTRRVSFADSFGFNLVSVKEFDCWELPSASTTFDLGTDIFHTEEYVLAPLFDLPSSKEDLMQQLQIQKAILESTESLLGSTSIKGIIRVLNVSFEKLVYVRMSLDDWQTHYDILAEYVPNSCDGETDQFSFKIVLVPPYQKDGSKVEFCIRYETSVGTFWSNNNGTNYTFICQKKEQEPEPVKP
modifications: left off: a dimerising Fc or GST
notes: GST fusion of amino acids 2-243 of human GM
As for B5, the “interaction with PP1” value in the series with PP1c (γ1-isoform) is given as “interacted with PP1”.
